Results: the DeepSol protein solubility set

Test: soluble on expression in E. coli; label from the status in PepcDB or PDB records

Sequence | soluble on expression in E. coli
GPGSMEERKTASGSAYYLPSPLLLSQNQGEERVKFVVVSGGVCSSLGKGVTTSAIGALLHASGYRVCSIKIDPYINIDAGLMSPYEHGEVYVLEDGGEADLDLGNYERWMSVHLTRDHNITTGKMYQKLLTKERAGGFLGKTVQLVPHFTNEVVNHIFKIC | not soluble
NGVWVIGEQREGKINPVTIELIGEGRKLADQLGKELAVVIAGYEVEKEVKELLHYSVDKVYYINDPLLKDFTTDGYAISIANLIERKKPEVVLVGATSIGRDIAPRIAGKVGTGLTADCTKLEIDSTDNKLLQTRPAFGGNLMATIVCPKNRPQMSTVRPGVMAKAVRNESETGILEVVTPELTEKMIRTRLVEILPQEKKSVN | soluble
MGSDKIHHHHHHMNQEKIQELVSRSQQDDKRAFALLVSEFQPLVFRLAFRLLCDEEEARDITQETFVKVWLSLKTYNQENRLSTWLYKITCNTCYDRLRSLRHSPLDNESAFSDSVNIPSDDHIEISLSNKQLKELILRYTNELPPQQKLVFTLRDVEELEVAEVQIITGLSPEKIKSTLYLARKNIRNKMNQIDPDL | not soluble
RAKGTLRIWAEPFTKLRVPKIFNLRMDPYEVADVTSNTYYDWMLDRAYMLVPAQTYVGRFLETFKEFPPRQKAASFSLDQVMEKLQENPNK | not soluble
MSLAQGRQVIGLDIGTTSTIAILVRLPDTVVAVASRPTTLSSPHPGWAEEDPAQWWDNARAVLAELKTTAGESDWRPGGICVTGMLPAVVLLDDRGAVLRPSIQQSDGRCGDEVAELRAEVDSEAFLARTGNGVTQQLVTAKLRWIERHEPAVFGAIATVCGSYDYINMLLTGERVVDRNWALEGGFIDLASGTVEADLVALAHIPPSAVPPAHPTHRVLGAVTAEAAALTGLPTGLPVYGGAADHIASALAAGITRPGDVLLKFGGAGDIIVASATAKSDPRLYLDYHLVPGLYAPNGCMAATGSALNWLAKLLAPEAGEAAHAQLDALAAEVPAGADGLVCLPYFLGEKTPIHDPFASGTFTGLSLSHTRGHLWRALLEAVALAFRHHVAVLDDIGHAPQRFFASDGGTRSRVWMGIMADVLQRPVQLLANPLGSAVGAAWVAAIGGGDDLGWDDVTALVRTGEKITPDPAKAEVYDRLYRDFSALYATLHPFFHRSREGHHHHHH | soluble
MGSDKIHHHHHHMTATTATAPTMRGGGRNELPPHLDDNLLTPRFYTTEFDKAAKTDLDIARKDFEAMFKEMEADYNLKHFDRKASLERLSELSPEDKAIYESYLVRSVVSEFSGFLLFKEISNRFKKAGRQELGQFFTFLARDEARHAGFLGRALKAEGINVDLPNLGNKRAATFFPLSWVLYSLYLSEKIGYWRYILINRHLNDNPEKVCAPLFDFFEPWCQDENRHGDCINLMMRCWPGMTKGFRGKLLSRFFLWSVFLTHTLTVCERGDFYGLLGIDPVLFDEEVIIQTNNTSRNAFPWVYNFDDGKFLEMRVQILKAFRNWRESSGLAKPVALSKFVSLILRQFALPMQKTNAVRYG | not soluble
MMRVKFNGKELDTDFKTSLEFFENISKNENDVWIINGFATKENIALNENDELFCIEKNTLPPKDALDAMMRARHTPKLHDKLKNGRVAVCGLGGLGSHIAINLARSGVGYLKLIDFDVIEPSNLNRQAYRVSDLGKFKTEALKEQISEINPYISVEICTLKIDEDNLESLFKDIDIVCEAFDSAIAKAMIAQNFHRFYKDGILICASGLAGYGDSNSIQTRKIAKNFYVCGDLVNGAKLGNGLMAPRVNICAGHQSNLVLELLANKELEHHHHHH | soluble
MLKFNEEQQIKDIRGALALRSDVEKVVDQVWTKGFDAVYYIGIGGTYASAMQAVTYANGKSNLPIYVQHAAEYYTTGNKRLTEKSFVILSSVTGTTQEVVQAVQEIKKVGATLFGFIDAKDSLLADLCDYVVTYPAPGTEQIKFFMVADRLMQKNNEFTDYENYYQELEEYLPTGLAEAEKSADAFGLAFAEKHRHDSIHYFIGAGNQWGAVYSYAMCYWEEQSWLRSKSIHAAEFLHGTLEIVDETTPVTLFIGEDEQRPLAERVAKLLPKICANYTIIDSKAYELPGISEKYRGRVVSFLLMHAVTQRIDAHVEKLNCHPLEIRRYYRQFDY | not soluble
MNGTRNWCTLVDVHPEDRAAGSVDILRLTLQGEPTGDELEHIAQKAGRKTYAMVSSHSAGHSLASELVESHDGHEEIIKVYLKGRSGDKMIHEKNINQLKSEVQYIQEARNCLQKLREDISSKLDRNLGDSLHRQEIQVVLEKPNGFSQSPTALYSSPPEVDTCINEDVESLRKTVQDLLAKLQEAKRQHQSDCVAFEVTLSRYQREAEQSNVALQREEDRVEQKEAEVGELQRRLLGMETEHQALLAKVREGEVALEELRSNNADCQAEREKAATLEKEVAGLREKIHHLDDMLKSQQRKVRQMIEQLQNSKAVIQSKDATIQELKEKIAYLEAENLEMHDRMEHLIEKQISHGNFSTQARAKTENPGSIRISKPPSPKPMPVIRVVET | soluble
MSLNTQDFLAGYTKRFVDNKEEDMSLDEYLELCKTDPTAYANPAERLLMAIGEPELIDTRHDPVLSRIFSNKIIHHYEVFKDFYGMEEPIEQIVGFLKHAAQGLEETKQVLYLLGPVGGGKSSIAEKLKDLMERIPFYAIKGSPVFESPLSLFNPLEDGELLRERFGIPTRYLRYLMSPWAVKRLQEYNGDISKFRVIKVKPSRLKQIAIAKTEPGDENNQDISSLVGKVDIRKLEEFSQDDPDAYSYSGGLCRANRGLLEFVEMFKAPIKVLHPLLTATQEGNYNATEGLSAIPFEGIILAHSNESEWQSFRNNEGHHHHHH | not soluble
MVARNDNLKPFSERSVDEARELGRKGGKASGEVRRKKADLKRAISIVLSSEVPSSKMAKTLKEMGYENTNEMAMVLSMTQKAIKGDVKAASWISNIIQPAKVEHEVEMSVGVDEKRKVAEEYIRGLFNNDTGNSTEENN | not soluble
MTQLATICYIDNGDSLLLLHRNKKENDVHKGKWISVGGKLEAGETPDECARREILEETHLTVTEMAFKGIITFPEFTPGHDWYTYVFKVTGFEGDLISDEESREGTLEWVPYDQVLEKPTWEGDYDIFKWILEDRSFFSAKFTYDQNNQLMDKSVTFY | not soluble
MLKLPPLSLYIHIPWCVQKCPYCDFNSHALKGDVPHQEYVDHLLADLDADLPLAGGRALHSIFIGGGTPSLLSAEAMQALLDGVRARIPLTPDAEITMEANPGTVEADRFSGYQRAGINRISIGVQSFDPQKLTRLGRIHGPEEAKRAAQLATGLKLRSFNLDLMHGLPDQSLDEALDDLRQAIALNPPHLSWYQLTIEPNTLFSSRPPTLPDDDALWDIYEQGHALLSAAGYEQYETSAYAKPGYQCQHNLNYWRFGDYLGIGCGAHGKLTFSDGHILRTVKVRHPRGYMQGTYMDKQHDVANDDRPFEFFMNRFRLLEAAPRADFTAYTGLEEHSIRPQLDQALAQGYLTETATHWQITEHGKLFLNSLLELFLAEELEHHHHHH | not soluble
MGSDKIHHHHHHMGDDILSQEEVDALLRGVSGEDEDDDGGQDAQGVRGYDIGRQERIVRGRMPTLEIINERFARNLRIGLFNFLRRNAEISVGPVRVQKYSEFIRNLVVPTNLNLVHVKPLRGTGLLIFDPDLVFLIVDNLFGSDGRYHVRVEGRDFTPTEQRIIHRLLEVVFTECQKAWEPVYPIEFVYLRSEMNTQFANIATPTEVVVAMTFHIELGAGGGDFHICLPYSMVEPIRDLLSSTMQADRTEVDNRWVNLMTHQVQAAEVELVASLAHAKVTLGQILNLKNGDVVMIEIPERVEADVSGIPVFEASYGTVQGRYALKVEKILAGTNEFLESPGEHEQ | not soluble
MSLGFHEVRFPTNLSFGSIGGPERRTEIVTLVNGFEERNSLWAHSRRRYDAGVALRSLDDIQALLAFFEARRGQLYGFRWKDWADYRSCPATASPGPKDQPLGIGDGISREFALVKTYRSGSEQYVRPVAKPVAGSVKVAVAGAVLVEGAGFSVDETRGLVTLAAAPAEGAAVTAGFEFDVPVRFDTDRIQISMASFQAGEVPSVPVMEVRVEGHHHHHH | soluble
MSLKVYVVKKGYRPGIYHSWPEAEEQVKGFPGAEYKSFSNIMEALDYQQMDPEDALKALQGAEDKLQAAIAKVRQGGSKKKQAESQKEFAASSKYAAHIFTDGGCRNNGTHKGGHVQADDKAAWAYLIEYGGQKLSASGGRFGATNNEMEMTAFLESLKKLEELGLNDQPLLFSLDSQYVIKAVSDNDQGPAWIKGWQRRGWKKADGSPVANRELWQEIAKEMAKFAQPEFEWVKGHANSAGNNFVDGLLNKYMDQEGHHHHHH | soluble
MPDDEKIKLRYSPEESARLIKEEARRLGFSACGFAEAQALPPSVVGTYEKFLSEGRHGEMDYLERNRELRYSPAELLPGTRTVISVALNYYPKIKQPASAPQIAYYAYGKDYHKVVKRLLDKLLDYIRREVCPSVSGRSFSDSAPIAERYWACRAGIGWVGRSGMLILPRGGTFFFLGELLVDIDLPPDAPMPSRCGACRNCIESCPTGAISEEGMDSRLCVSYLTIEHEGEIPPELVGKLGNRFYGCDSCQLCCPWNRYAHPSEVEAFVPREALFTFDRDDLVSLDEEKYLHFFAGSPMKRAGLDGLRRNARALEQGDKKEDEQPTDEDG | not soluble
MKVGYLGPAATFTHLAVSSCFQNGAEHVAYRTIPECIDAAVAGEVDFAFVPLENALEGSVNLTIDYLIHEQPLPIVGEMTLPIHQHLLVHPSRENAWKELDKIYSHSHAIAQCHKFLHRHFPSVPYEYANSTGAAAKFVSDHPELNIGVIANDMAASTYELKIVKRDIQDYRDNHTRFVILSPDENISFEVNSKLSSRPKTTLMVMLPQDDQSGALHRVLSAFSWRNLNLSKIESRPTKTGLGHYFFIIDIEKAFDDVLIPGAMQELEALGCKVRLLGAYQSYQLMAGDPLEHHHHHH | not soluble
MTETTYENLTRRIDRISAEMREISEENGLRILSLLESQTKSIKDELSRLLWIELPELNESHKIEAVSKSTTGMFFAPGIFEMDAMRKAFFKRQAKHFFENEAEQQAYIEHAEKEYLEATVTLKDILFNSKNGTQKANKSCLIEKFEEAMQ | not soluble
MAQLQKDAQENECRELIEVPSGHDYQIRQYIEKYPQFLWKYSEGVTIPGYVLNIAEQLNSEYGNVENIPIDLYPCEYYRIVEHSMPTDIGLQPKRFDRIKENLTEKLQQVFRHQDADLYMPENHLIPTVACAVCIQGTWYRGKIENVPPRGIWMYVNLIDAGMSRQVMKSDVRRLPLAFGHYPPMVVKATIRGAVIHRMDRGKVDQFQNMIRNIDYLARCQITTCTEPFQIVLCHPKYEFMNMCSFLLAPRRGQPSQEGVWIPREIAKQLERENGFERNDYDDSGADSDFLEDEEEEDAGWDYGEGDDYAYLRSFPPACKIFRMSEDEFMVERIENERIIYLTSKDMLERRREAEEYLTKEKESLESLPDVWMAYGTSCSVFHQGTMKRASCCGEEGSTIQLLLIDYGISIEVSKSDVYNIPNKDEVNMEPFVTLVSIKSFPFIHYSRVKILQELLPRGTPVKFHRDRKCKEIPTKGEIYQMNGTSVEQSVSEIVSSCQLDLECNSLLPSRIANNELTQLLAYCINYEFMYKSPNVVIYKKSKRVKSHF | not soluble
